Biological target: T1, G-CSFR/gp130 chimera proteins (Homo sapiens, UniProt P40189+Q99062)
T1 construct: the extracellular domain of the human G-CSF receptor fused to the full transmembrane domain; expressed in transfected cells; host or cells: F11 cells
T1 sequence (Q99062+P40189 with tags, fused parts or gaps): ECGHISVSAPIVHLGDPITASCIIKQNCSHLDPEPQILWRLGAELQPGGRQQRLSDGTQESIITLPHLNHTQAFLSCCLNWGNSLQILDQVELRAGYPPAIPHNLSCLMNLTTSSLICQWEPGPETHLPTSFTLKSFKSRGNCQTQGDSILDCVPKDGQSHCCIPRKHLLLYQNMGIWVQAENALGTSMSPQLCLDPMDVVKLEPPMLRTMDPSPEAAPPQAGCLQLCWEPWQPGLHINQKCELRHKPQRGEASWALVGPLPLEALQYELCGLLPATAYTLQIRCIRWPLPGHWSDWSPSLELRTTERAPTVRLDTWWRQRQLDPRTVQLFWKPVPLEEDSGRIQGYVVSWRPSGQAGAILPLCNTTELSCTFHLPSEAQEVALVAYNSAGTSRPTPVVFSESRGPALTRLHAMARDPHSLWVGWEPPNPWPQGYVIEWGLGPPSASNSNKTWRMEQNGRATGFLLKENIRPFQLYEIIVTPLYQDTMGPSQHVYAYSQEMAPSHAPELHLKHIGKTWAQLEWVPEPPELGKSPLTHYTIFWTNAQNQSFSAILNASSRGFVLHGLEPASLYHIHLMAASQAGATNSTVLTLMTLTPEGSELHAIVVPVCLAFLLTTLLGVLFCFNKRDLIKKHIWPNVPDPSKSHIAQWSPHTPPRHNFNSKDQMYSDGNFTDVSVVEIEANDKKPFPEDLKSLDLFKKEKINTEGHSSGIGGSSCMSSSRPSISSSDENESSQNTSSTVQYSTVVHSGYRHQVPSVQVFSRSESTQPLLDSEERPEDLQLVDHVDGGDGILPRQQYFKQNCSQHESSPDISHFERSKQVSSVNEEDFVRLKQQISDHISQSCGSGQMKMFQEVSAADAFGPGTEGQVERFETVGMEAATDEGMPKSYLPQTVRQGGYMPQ
Experiment: G-CSF stimulation of G-CSFR/gp130 chimera proteins in F11 cells, cell mortality by Trypan blue exclusion
Assay type: cell-based
Settings: 100 nM; G-277 expressed
Description: B) F11 cells were transfected with 0.5 μg of the pcDNA3 vector or pcDNA3-APP in association with 0.5 μg of the pEFBos vector or the pEFBos vectors encoding the extracellular domain of the human G-CSF receptor fused to the full transmembrane domain and a C-terminally truncated intracytoplasmic domain of gp130 (named “G-CSFR/gp130”). G-CSFR/gp130 (277) contains the full intracytoplasmic domain of gp130 corresponding to amino acids 1-277, while G-CSFR/gp130 (25), (68), and (133) contain the intracytoplasmic domains corresponding to amino acids 1-25, 1-68, and 1-133, respectively. At 24 hr after transfection, the cells were added with indicated amounts of human G-CSF. Cell mortality was determined by Trypan blue exclusion assay at 72 hr after transfection. The results of immunoblot analysis of the expression of […] are shown in photos.
C) Instead of the pcDNA3-V6421-APP vector, pcDNA3-K595 N/M596L-APP (NL-APP), M146L-PS1 and N141-I-PS2 vectors were used to do the same experiments as in FIG. 2A. The results of immunoblot analysis of the expression of NL-APP, M146L-PS1 and N141-I-PS2 are shown in photos.
D) F11 cells were transfected with 0.5 μg of the pEFBos vector or pEF-G85R-SOD1 in association with 0.5 μg of the pEFBos vector or each pEFBos vector encoding G-CSFR/gp130 (277) or G-CSFR/gp130 (25). At 24 hr after transfection, the cells were added with indicated amounts of human G-CSF. Cell mortality was determined by Trypan blue exclusion assay at 72 hr after transfection. The results of the expression of G85R-SOD1, which were confirmed by the immunoblot analysis, are shown in photos.
Neurohybrid F11 cells and pcDNA3 vectors encoding V642I-APP, K595N/M596L-APP (NL-APP), M146L-PS1, and N141I-PS2 cDNA were prepared as already described (Hashimoto et al, 2000, 2001a, 2003). pCAG-human gp130 and pCAG-human gp130 ED (the extracellular domain of human gp130) were prepared as described (Kumanogoh et al., 1997). pcDNA3 vectors encoding the extracellular domain of the G-CSF receptor fused to the full-length transmembrane domain and various portions of the intracellular domains of human gp130, were prepared as described (Fukada et al, 1996). The intracellular domain of gp130 was C-terminally truncated. A chimera protein named G-277 contained a 277 amino acid-long full intracellular domain of gp130 (SEQ ID NO:35), while G-195, G-133, G-68, and G-25 contained the amino acids 1-195 (SEQ ID NO:36), 1-133 (SEQ ID NO:37), 1-68 (SEQ ID NO:38), and 1-25 (SEQ ID NO:39) intracellular portions, respectively. C-terminally myc-tagged human WSX-1 and myc-tagged mouse CREME9 cDNAs were amplified from human and mouse embryo cDNA (BioChain) by PCR using sets of sense primers and antisense primers: 5′-[…]-3′ (SEQ ID NO:3) and 5′-[…]-3′ (SEQ ID NO:4) for human WSX-1; 5′-[…]-3′ (SEQ ID NO:5); and 5′-[…]-3′ (SEQ ID NO:6) for mouse CREME9. Plasmids encoding C-terminally V5-tagged human CNTF-R (V %-CNTF-R) and rat IL-6R (pUCM18-rat IL-6R) were purchased from Invitrogen and American Culture Collection, respectively. A pEFBos vector comprising familial ALS (FALS) gene G85R-SOD1 was kindly provided by Dr. Shoji Tsuji. Cosmid of human wild […] was constructed by inserting a full-length gp130 into a SwaI site of pAxCAwt (TaKaRa).
The transfection procedures were as described (Hashimoto et al, 2000, 2001a, 2003). F11 cells, seeded at 7×10^4/well in 6-well dishes, were transfected with indicated vectors. Transfection efficiency in these protocols has been determined to be invariably around 70%. At 72 hrs after transfection, the Trypan blue exclusion assay and LDH assay were performed as a cell-death assay and the WST-8 assay was performed as cell-viability assays (Hashimoto et al, 2000, 2001a b, 2003). HN was added to the culture medium usually at 5 hrs after transfection, but in some cases at 24 hrs after transfection.

B1: G-CSF: human G-CSF, ligand stimulating G-CSFR/gp130 chimera proteins (protein, UniProt P09919 31-207, looked up)
Granulocyte …: TPLGPASSLPQSFLLKCLEQVRKIQGDGAALQEKLVSECATYKLCHPEELVLLGHSLGIPWAPLSSCPSQALQLAGCLSQLHSGLFLYQGLLQALEGISPELGPTLDTLQLDVADFATTIWQQMEELGMAPALQPTQGAMPAFASAFQRRAGGVLVASHLQSFLEVSYRVLRHLAQP
prevention of NL-APP-, M146L-PS1-, N141I-PS2-mediated neuronal cell death: prevented
prevention of neuronal cell death induced by V642I-APP: prevented
